B1: library; numbered along this chain (parent)
chain: MRKPRAAVGSGHRKQAASQEGRQKHAKNNSQAKPSACDGLARQPEEVVLQASVSSYHLFRDVAEVTAFRGSLLSWYDQEKRDLPWRRRAEDEMDLDRRAYAVWVSEVMLQQTQVATVINYYTGWMQKWPTLQDLASASLEEVNQLWAGLGYYSRGRRLQEGARKVVEELGGHMPRTAETLQQLLPGVGRYTAGAIASIAFGQATGVVDGNVARVLCRVRAIGADPSSTLVSQQLWGLAQQLVDPARPGDFNQAAMELGATVCTPQRPLCSQCPVESLCRARQRVEQEQLLASGSLSGSPDVEECAPNTGQCHLCLPPSEPWDQTLGVVNFPRKASRKPPREESSATCVLEQPGALGAQILLVQRPNSGLLAGLWEFPSVTWEPSEQLQRKALLQELQRWAGPLPATHLRHLGEVVHTFSHIKLTYQVYGLALEGQTPVTTVPPGARWLTQEEFHTAAVSTAMKKVFRVYQGQQPGTCMGSKRSQVSSPCSRKKPRMGQQVLDNFFRSHISTDAHSLNSAAQ

Variants of: B1
Experiment: 8OG:A repair function score (normalized; synonymous = 0, nonsense = -1) (normalized log-likelihood score); higher = more repair activity (WT-like)
Conditions: with 8OG:A DNA repair reporter (GFP) in HEK-293 MUTYH KO cells
Method in brief: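 Lentiviral MUTYH cDNA NNN codon-scan libraries were expressed in MUTYH knockout HEK-293 cells with 10 pg/ml doxycycline, and the cells received an 8OG:A GFP repair reporter together with mCherry. At 72 h, viable mCherry+ cells went into GFP+ (repair) or GFP− bins, three replicates per tile, before tile amplicons were sequenced. A repair function score was then built from per-tile Rosace fitness scores, anchored on the synonymous and nonsense distributions. Synonymous medians sat at 0 and nonsense at -1, and variants under 300 counts per million at the start were left out.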
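Also: cells sorted at 72 h after reporter transfection.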

8OG:A repair function score of substitutions, site by site:
G248: F -0.958 | A -0.729 | H -0.883 | E -0.978 | C -0.885 | D -0.876
L241: N -0.946 | R -1.03 | M -0.522 | F -0.872 | P -0.994 | D -0.924 | W -0.384 | Q -0.948 | I -0.264 | H -1.01 | Y -0.893 | A -0.581 | E -0.98 | S -0.626 | T -0.51 | V -0.358 | G -0.827 | C -0.37 | K -1.01
R246: L -0.719 | V -0.732 | H -0.449 | D -0.657 | E -0.696 | N -0.471 | Q -0.476 | A -0.605 | C -0.646 | T -0.728 | K -0.495 | S -0.535 | G -0.845 | M -0.559 | I -0.836 | F -0.68 | Y -0.517 | W -0.645 | P -0.964
A245: G 0.0269 | I -0.104 | P -0.612 | Y -0.107 | Q 0.0913 | L 0.157 | D 0.223 | M -0.146 | R -0.124 | T -0.0132 | N -0.0246 | K -0.0553 | W -0.0373 | H -0.134 | C -0.113 | E 0.644 | F 0.00779 | S 0.0557 | V 0.000414
V242: F -0.874 | T -0.488 | E -0.964 | P -0.961 | Y -0.964 | G -0.916 | C -0.39 | N -0.576 | L -0.288 | H -0.806 | I 0.0144 | M -0.625 | D -0.978 | K -0.949 | R -0.886 | S -0.772 | W -1.01 | A -0.526 | Q -0.763
D243: M -0.753 | N -0.739 | G -0.755 | T -0.727 | V -0.767 | L -0.818 | W -0.67 | A -0.387 | S -0.358 | F -0.786 | E -0.293 | H -0.31 | P -0.554 | Q -0.829 | C -0.276 | Y -0.667 | K -0.914 | I -0.858 | R -0.99
P244: Q -0.604 | R -0.145 | G -0.385 | N -0.467 | I -0.574 | A -0.238 | D -0.291 | K 0.065 | T -0.234 | H -0.418 | V -0.427 | Y -0.542 | S -0.232 | L -0.398 | F -0.422 | W -0.457 | C -0.39 | E -0.105
P247: Y -1.04 | E -0.987 | F -1.01 | W -1.03 | K -1.03 | D -1.03 | I -0.969 | L -1.02 | N -1 | H -0.982 | V -0.95 | G -0.799 | A -0.379 | T -0.856 | R -1 | C -0.799 | S -0.584 | M -0.978 | Q -0.968
Q239: T -0.143 | M -0.146 | P -0.953 | L -0.403 | N 0.162 | V -0.529 | R -0.232 | Y -0.309 | S -0.175 | W -0.74
Q240: G -1 | A -0.971 | E -0.919 | T -0.972 | I -0.959 | F -0.939 | L -0.948 | S -0.945 | R -0.97 | N -0.999 | M -0.867 | V -0.936 | C -1.01 | D -0.979 | Y -0.969 | W -1 | H -0.94 | P -1 | K -0.932
